In patent publication US20250197448A1 (published 2025):
Starred links: 1 amine or outer side, 2 acyl side, 3 side chain; linkers in the order of their positions; H or OH if unused. Positions of bridges follow the written chain, without caps; N, C: chain ends. Non-standard residues stand in square brackets, D forms with d. No end group written: not given here. O2beY = O-(2-bromoethyl)-tyrosine (p-2beF), reacts with Cys to form a thioether, O=C([C@H](Cc1ccc(OCCBr)cc1)N[*:1])[*:2]; pCaaF = p-(2-chloroacetamido)-phenylalanine, O=C(CCl)Nc1ccc(C[C@H](N[*:1])C(=O)[*:2])cc1

Legend:
[1] = target: T1, PD-L1 (Programmed Death-Ligand 1), recombinant, His-tagged (human, UniProt Q9NZQ7 18-134); assay: in vitro PD-L1 binding assay; FIG. 15A
T1 chain: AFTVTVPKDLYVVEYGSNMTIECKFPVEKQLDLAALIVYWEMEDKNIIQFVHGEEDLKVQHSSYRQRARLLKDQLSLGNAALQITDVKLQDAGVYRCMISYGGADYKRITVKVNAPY

[2] = target: T1, PD-L1 (Programmed Death-Ligand 1), …; assay: in vitro PD-L1 binding assay
Desert Hedgehog (Dhh) = Desert Hedgehog (Dhh) (human, UniProt O43323 23-198); assay: immobilized Dhh binding assay; FIG. 13C
Indian Hedgehog (Ihh) = Indian Hedgehog (Ihh) (human, UniProt Q14623 28-202); assay: immobilized Ihh binding assay; FIG. 13C
Sonic Hedgehog (Shh) = Sonic Hedgehog (Shh) (human, UniProt Q15465 24-197); assay: immobilized Shh binding assay; FIG. 13C
cRK10(pCmF) = assay: in vitro PD-L1 binding assay
cCLP002(pCmF) = assay: in vitro PD-L1 binding assay
cCLP002(pCaaF) = assay: in vitro PD-L1 binding assay
[3] = target: T1, PD-L1 (Programmed Death-Ligand 1), …; assay: in vitro PD-L1 binding assay

Sequence of Indian Hedgehog (Ihh) (Q14623 28-202): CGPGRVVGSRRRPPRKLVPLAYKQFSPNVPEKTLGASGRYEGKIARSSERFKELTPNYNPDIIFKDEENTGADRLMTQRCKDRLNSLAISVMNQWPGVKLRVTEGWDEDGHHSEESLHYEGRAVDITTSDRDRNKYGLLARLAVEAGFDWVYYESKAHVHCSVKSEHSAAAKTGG

TYLCGAISLA[pCaaF]KAQIKESL (thioether 4-11) [cyclic peptide cRK10 (pCaaF)] was tested, and the Kd [1] was 12000 nM.

With DYKDDDDKGSGSTYLCGAISLA[pCaaF]KAQIKESLEAAAK-{Fc-H6} (Fc fusion, thioether 16-23) [FLAG-cRK10-EAAAK-Tras-Fc-His] the Kd [2] was 88 nM.

DYKDDDDKGSGSTYLCGAISLA[pCaaF]KAQIKESLGSGSGS-{Fc-H6} (Fc fusion, thioether 16-23) [FLAG-cRK10-(GS)3-Tras-Fc-His] showed a Kd [2] of 88 nM.

DYKDDDDKGSGSTLSW[O2beY]EAMDMCTSSQQQQQQ-{Fc-H6} (Fc fusion, thioether 17-23; also: dimeric through the Fc) [L2-m5-Tras-Fc] gave a Kd (Desert Hedgehog (Dhh)) of 9 nM, a Kd (Indian Hedgehog (Ihh)) of 8 nM and a Kd (Sonic Hedgehog (Shh)) of 8 nM.

B1: PD-L1 (ligand)
chain: T1 chain
Work on B1 yielded a Kd (cRK10(pCmF)) of over 100000 nM, a Kd (cCLP002(pCmF)) of over 15000 nM and a Kd (cCLP002(pCaaF)) of 87000 nM.

Work on DYKDDDDKGSGSTYLCGAISLA[pCaaF]KAQIKESLPAPAP-{Fc-H6} (Fc fusion, thioether 16-23) [FLAG-cRK10-PAPAP-Tras-Fc-His] yielded a Kd [2] of 90 nM.

Work on DYKDDDDKGSGSWHFS[pCaaF]NWRWLPCQQQQQQ (Fc fusion, thioether 17-24 (inferred); not fully specified (C-terminus)) [cCLP003 (pCaaF)-Tras-Fc] yielded a Kd [3] of 238 nM.
